{
  "source": "paper PMC9558565",
  "origin": "cited, not measured here",
  "target": "p53p (Homo sapiens) (UniProt P04637)",
  "sequence (P04637 whole entry)": "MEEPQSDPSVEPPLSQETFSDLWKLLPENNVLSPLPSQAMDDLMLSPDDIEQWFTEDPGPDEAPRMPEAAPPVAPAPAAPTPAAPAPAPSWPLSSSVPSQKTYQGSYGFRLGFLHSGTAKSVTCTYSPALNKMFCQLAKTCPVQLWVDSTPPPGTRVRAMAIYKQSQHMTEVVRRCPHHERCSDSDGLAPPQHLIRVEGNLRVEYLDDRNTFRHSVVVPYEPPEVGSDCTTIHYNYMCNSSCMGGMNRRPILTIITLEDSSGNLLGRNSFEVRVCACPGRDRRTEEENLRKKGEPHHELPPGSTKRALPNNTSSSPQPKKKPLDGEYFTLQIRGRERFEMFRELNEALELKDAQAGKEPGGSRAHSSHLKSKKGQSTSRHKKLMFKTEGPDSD",
  "data": [
    {"substance": "MDM2 (from UniProt Q00987)", "values": [
      {"measurement": "Kd", "result": 46, "unit": "nM"}
    ]}
  ]
}
